Test results reported in patent US20100092481A1.

How the values were obtained:
[1] = molecular target: gB 69-78 peptide (human cytomegalovirus) (UniProt P06473); assay: ELISA on peptide
[2] = molecular target: T1, hCMV gH protein, full length, expressed in HEK293T cells (human cytomegalovirus), P12824; assay: cell cross-competition, 20x excess; competitor 3G16-biotin; conditions: remark: other sources report otherwise
[3] = molecular target: T1, hCMV gH protein, full length, expressed …; assay: cell cross-competition, 20x excess; competitor 11B12-biotin; conditions: remark: other sources report otherwise
[4] = molecular target: T1, hCMV gH protein, full length, expressed …; assay: cell cross-competition, 20x excess; competitor 13H11-biotin; conditions: remark: other sources report otherwise

| Binder | EC50 [1] [mg/L] | Inhibition of binding (%) [2] [%] | Inhibition of binding (%) [3] [%] | Inhibition of binding (%) [4] [%] |
| --- | --- | --- | --- | --- |
| 6B4 (antibody, V domains shown) VH: QVQLVESGGGVVQPGRSLRLSCAASGFRFNEFNMHWVRQAPGKGLEWVAVISIDGRHKYNADSVEGRFTISRDNSRNTLYLQMNSLRVEDTALYYCVTDGKAVDGFSGILEFWGQGTPVTVST VL: EIVLTQSPATLSLSPGERATLSCWASQSVGGYLAWYQQKPGQAPRLLIYDASIRATGIPARFSGSGSGTHFTLTINSLEPEDFAVYYCQQRNNWPPLTFGGGTKVEIK | 0.044 | – | – | – |
| 3G16 (antibody, V domains shown) VH: RAQLVQSAAEMKNPGASVKVSCEASGYTFTGYYVHWMRQAPGQGLEWMGWINPMTGATKSPQKFQGRVTMTRDTSTTATHIELTRLRSDDSAVFFCARGGPTSTRITGKRHFDLWGRGTLITVAS VL: QSALTQPASVSGSPGESITISCTGTISDVGAYNSVSWYQQHSGTAPELIIYDVTNRPAGVSSRFSGSKSGNTASLTISWLQSEDEAEYYCSSYTTSDTYVFGSGTQVTVL | – | 100 | 0 | 0 |
| 11B12 (antibody, V domains shown) VH: QMQLVQSGPQVKKPGTSVKVSCKASGFTFTSSAMQWVRQARGQRPEWIGWIVLGSGNTNYAQKFQERVTLTRDMSTATAYMELSSLRSEDTAVYYCAADRGRGGYNVYTYWGQGTLVAVSS VL: EIVMTQSPGTLSLSPGERATLSCRASQTISNTYVAWYQQKPGQAPRLLIYGASSRATGIPDRFSGSGSGTDFTLTIRRLEPEDFAVYYCQQNGQSPWTFGQGTNVEIK | – | 0 | 100 | 100 |
| 13H11 (antibody, V domains shown) VH: QVQLVQSGAEVKKPGASVKVSCKASGYTFTNYYIHWVRQAPGQGLEWMGIIHPSSGGTSYAQKFQGRVTMTRDTSTSTVSMDLSSLRSEDTAVYYCGRAFRILGLSDVFVNDWGQGTVVTVSS VL: DIQMTQSPSSLSASVGDRVTITCRASQGINNYLAWYQQKPGKVPKLLIYAASTLQSGVPSRFSGSGSGTAFTLTILSLQPEDVATYYCQKYNSAPFTFGPGTKVDIK | – | 0 | 100 | 100 |
